Measurements taken from article PMC4141790, “RecA Protein Plays a Role in the Chemotactic Response and Chemoreceptor Clustering of Salmonella enterica” (PLoS ONE, 2014).

B1: CheW coupling protein fused to a β-galactosidase truncation (ΔαCheW / ΔωCheW) (natural protein)
chain: MTGMSNVSKLAGEPSGQEFLVFTLGNEEYGIDILKVQEIRGYDQVTRIANTPAFIKGVTNLRGVIVPIVDLRVKFCEGDVEYDDNTVVIVLNLGQRVVGIVVDGVSDVLSLTAEQIRPAPEFAVTLSTEYLTGLGALGERMLILVNIEKLLNSEEMALLDIAASHVA
notes: CheW coupling protein, S. enterica sv; Typhimurium; the cheW gene was PCR-amplified and cloned (SphI/BamHI) into both pB2HΔα and pB2HΔω; One molecule for both fusions (Δα and Δω), since each protein stood in both positions of the two-hybrid system; also called Δα-cheW fusion; Δω-cheW fusion; source: two-hybrid fusion, co-expressed in E. coli MC1061 (pB2HΔα / pB2HΔω derivatives, 20 nM IPTG)
B2: RecA protein fused to a β-galactosidase truncation (ΔαRecA / ΔωRecA) (natural protein)
chain: MAIDENKQKALAAALGQIEKQFGKGSIMRLGEDRSMDVETISTGSLSLDIALGAGGLPMGRIVEIYGPESSGKTTLTLQVIAAAQREGKTCAFIDAEHALDPVYARKLGVDIDNLLCSQPDTGEQALEICDALARSGAVDVIVVDSVAALTPKAEIEGEIGDSHMGLAARMMSQAMRKLAGNLKQSNTLLIFINQIRMKIGVMFGNPETTTGGNALKFYASVRLDIRRIGAVKEGDNVVGSETRVKVVKNKIAAPFKQAEFQILYGEGINFYGELVDLGVKEKLIEKAGAWYSYNGEKIGQGKANATTWLKENPATAKEIEKRVRELLLSNQNATPDFAVDDSEGVAETNEDF
notes: RecA, S. enterica sv; Typhimurium; the recA gene was PCR-amplified and cloned (SphI/BamHI) into both pB2HΔα and pB2HΔω; One molecule for both fusions (Δα and Δω), since each protein stood in both positions of the two-hybrid system; also called Δα-recA fusion; Δω-recA fusion; source: two-hybrid fusion, co-expressed in E. coli MC1061 (pB2HΔα / pB2HΔω derivatives, 20 nM IPTG)

What was measured:
[1] = target: B2; experiment: two-hybrid; β-galactosidase Δα/Δω complementation (pB2HΔα/pB2HΔω) in E. coli MC1061; 37°C, samples 5 h after 20 nM IPTG; activity relative to the non-interaction control strain expressing ΔαAmyA and ΔωDnaE; conditions: partners not purified
[2] = target: B1; experiment: as above; conditions: partners not purified

| Binder | relative β-galactosidase expression [1] | relative β-galactosidase expression [2] |
| --- | --- | --- |
| B1 | > 7 relative to the non-interaction control strain |  |
| B2 |  | > 7 relative to the non-interaction control strain |
